Measurements reported in PMC10331486, “Characterization of an evolutionarily distinct bacterial ceramide kinase from Caulobacter crescentus” (The Journal of Biological Chemistry, 2023).

T1: CpgB (CCNA_01218), bacterial ceramide kinase (Caulobacter vibrioides, UniProt A0A0H3C600)
T1 construct: full-length gene, N-terminal His tag (pET28a NdeI/EcoRI), expressed in E. coli BL21(DE3), HisTrap purified, soluble; tag removal not mentioned
T1 sequence (A0A0H3C600 1-330): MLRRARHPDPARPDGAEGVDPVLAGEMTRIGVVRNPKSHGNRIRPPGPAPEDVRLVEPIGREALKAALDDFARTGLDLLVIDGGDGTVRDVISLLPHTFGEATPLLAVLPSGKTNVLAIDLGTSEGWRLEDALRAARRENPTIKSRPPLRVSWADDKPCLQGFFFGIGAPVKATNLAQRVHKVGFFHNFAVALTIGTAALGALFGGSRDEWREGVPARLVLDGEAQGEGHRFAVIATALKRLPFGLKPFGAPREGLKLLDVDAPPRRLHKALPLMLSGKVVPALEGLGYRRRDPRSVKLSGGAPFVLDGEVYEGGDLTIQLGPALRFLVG


Experiments:
[1] = molecular target: T1, CpgB (CCNA_01218), bacterial ceramide kinase; test: NBD-ceramide kinase assay, TLC fluorescence imaging; type: biochemical; details: read-out: % inhibition at 300 nM
[2] = substrate: Nc1ncnc2c1ncn2[C@@H]1O[C@H](COP(=O)(O)OP(=O)(O)OP(=O)(O)O)[C@@H](O)[C@H]1O; test: purified protein; details: 160 μM NBD-C6-ceramide fixed, 15 mM Mg2+, 20 mM Hepes pH 7.4, 30 °C
[3] = substrate: CCCCCCCCCCCCC/C=C/[C@@H](O)[C@H](CO)NC(=O)CCCCCNc1ccc([N+](=O)[O-])c2nonc12; test: NBD-ceramide kinase assay, TLC fluorescence imaging; type: biochemical, Caulobacter vibrioides; details: 1 mM ATP fixed, 15 mM Mg2+, 20 mM Hepes pH 7.4, 30 °C, labelled compound (fluorescent NBD)

| Molecule | inhibition at 0.3 µM [1] [%] | Km [2] [µM] | Km [3] [µM] |
| --- | --- | --- | --- |
| O=C(Nc1nc2ccc(NC(=O)C34CC5CC(CC(C5)C3)C4)cc2s1)c1ccccc1 [NVP-231] | 20 to 25 |  |  |
| CpgB (CCNA_01218), bacterial ceramide kinase (Caulobacter vibrioides NA1000) (protein, full-length gene, N-terminal His tag (pET28a NdeI/EcoRI), expressed in E. coli BL21(DE3), HisTrap purified, soluble; tag removal not mentioned) MLRRARHPDPARPDGAEGVDPVLAGEMTRIGVVRNPKSHGNRIRPPGPAPEDVRLVEPIGREALKAALDDFARTGLDLLVIDGGDGTVRDVISLLPHTFGEATPLLAVLPSGKTNVLAIDLGTSEGWRLEDALRAARRENPTIKSRPPLRVSWADDKPCLQGFFFGIGAPVKATNLAQRVHKVGFFHNFAVALTIGTAALGALFGGSRDEWREGVPARLVLDGEAQGEGHRFAVIATALKRLPFGLKPFGAPREGLKLLDVDAPPRRLHKALPLMLSGKVVPALEGLGYRRRDPRSVKLSGGAPFVLDGEVYEGGDLTIQLGPALRFLVG |  | 290 ± 70 | 19.2 ± 5.5 |
